Consider 8 sequences from the DeepSol protein solubility set.

A short description of the series: soluble on expression in E. coli; label from the status in PepcDB or PDB records.
With “MTFEDLHEYLDYLAKKNDLVTITEEVDPNLDLTYILSEEERMGRGRTILFKNVKGSQVPAVGNLFSTNEKLKAVLGDDPYSIGVKIADIVKPPRDSESFIGKGLEMMRELSGLRPKVSNSIPSGYSELEKVDLYRYPICKTWPDDGGPFITLPLVITKDPSTGIRNMGMYRMQVYDSETTGMHWHIHKGGSENFLKEKEKGKAMDVAVVIGSDPLTIFSAVAPLPNGIDEFMFRGLISRKRSELVKGKTVDLEYPRNFEIVLEGYIDPSETRVEGPFGDHTGYYSLEEEFPVFHVKNIIERNDRIYPTTIVGKLWHEDVVLGKAVERMFLPLIQMVLPEVVDINTMEEAVFHNMVIVSIKKRYPGHAKKVMFALWGLGQLMFSKIIVVVDDDINIHNRKELIWAMTTRIDPDRDVIIIPGTVTDSLDHAAPLFNYGSKMGIDATKKDKSEGYTRRWPDVLEMPKDVVDKVRQIMKNNRLIQLEHHHHHH”, the “soluble on expression in E. coli” value is given as “not soluble”.

With “MIRKATWADAPAIASVHVESWKTTYSGIVPDAYLETLSVGEKQPLWEKVLSQSGHSVFVAEENGRVVGFVSGGPNRAADGPIAKYDGELYAIYLLKEVQGKGLGRQLVQALTRHLAQKGIHSLVVWVLADNPSRGFYERLGGEKVAEERVEIGGKALWEWCYELARRPIDGTVGGLPNRAAA”, the “soluble on expression in E. coli” value is “not soluble”.

As for “MGSDKIHHHHHHMDGSLNGETWRFIVRNIRIGVVEDDPASCQLVLDYLNRYQSETGEQFTVSVFDDGARIVEKYAPVYDILLLDIEMKEIDGMAAARRIRERDDNVVIIFITAAPQYAISGYEVRALSYLLKPLPWFAFSQELKKSIDMVRRNGDDSMLIETGKGQMRMNLTDILYLESIRHTIVIHTLDGKYSINGTLKDMEAKLADRHFFRSNSCYLVNLKHVTGVADQDCIMSDDERLRVSRPRKKAFLAALADYMGGGR”, the “soluble on expression in E. coli” value is “not soluble”.

For “MSLANWVASSTVTADGHHLLGNPAAKLRLVEFVSYTCPHCSHFEIESEGQLKIGMVQPGKGAIEVRNFVRDPIDMTVALITNCVPPSRFFTLHTAFMRSQAQWIGPLANSTEAQRQRWFNGTFATRTRAIASDFRFYDFMAARGMDRSTLDRCLSNEALAKKLAAETDEAINQYNVSGTPSFMIDGILLAGTHDWASLRPQILARLNEGHHHHHH”, the “soluble on expression in E. coli” value is listed as “soluble”.

For “SGAMYIDCDGIKLNAYLDMPKNNPEKCPLCIIIHGFTGHSEERHIVAVQETLNEIGVATLRADMYGHGKSDGKFEDHTLFKWLTNILAVVDYAKKLDFVTDIYMAGHSQGGLSVMLAAAMERDIIKALIPLSPAAMIPEIARTGELLGLKFDPENIPDELDAWDGRKLKGNYVRVAQTIRVEDFVDKYTKPVLIVHGDQDEAVPYEASVAFSKQYKNCKLVTIPGDTHCYDHHLELVTEAVKEFMLEQIAK”, the “soluble on expression in E. coli” value is “soluble”.

Take “MGSDKIHHHHHHMFRVVICDDEKIQRSILKEFTEKLLSERCLNYQILEFSCGEDLISKYPEKIDIIFLDIQMKDINGIEVAKKIRKFDEKVEIIFTTAFSEYAPQGYEVRAYRYLVKPIEYSNFAMGVNLCIDNLQRKKERYIVLNSKKGFNRILIDSILYVETVKRDLVVHTIGRDYKANMSMKQAEKLLCENGFFRCHTSFIVNLRRIEDLRDNMITINEQFIPISKYRLKDLKVALTSLLCDIMY”: the “soluble on expression in E. coli” value is given as “not soluble”.

On to “MGSDKIHHHHHHMGKGTNPTIGIALGSGAAKGWAHIGVLNGLAAMGIKPDKVAGCSVGALVGAAYAHNHLAELEEWVRSFSSWDVLGLMDIRWRKGGLIGGEKVFDVLQSRIGDVNIEDLEYPFAAIATDLYSGQEIWFRHGDLRQAVRASCSMPGILAPVRQGERWLVDGAVVNPVPVSVSRAMGVDIVIAVDLHGFHSGRLQVLPVNMTSHRATKEDTEMPARQETGFMDLFARGREYVSNLTDKFSLGTKSNPGMIAVMSQSMGILEQRHKRARLMGDPPDICIVPEVANIGTMEFHRADEAIAAGEAAVAKVAHLIEAAIWKD”, for which the “soluble on expression in E. coli” value is listed as “not soluble”.

Take “MGSDKIHHHHHHPSEEVAKSGNPVFEGWYADPEGIIYGDTYWIYPTTSDLYEKQTFFDCFSSKDLVSWTKHTAILDTAEVKWAKIAMWAPSVINKDGKYYLFFGANDVHEGEIGGIGVAVSDRPEGPYKDLLGKPLINEIVNGAQPIDQFVFHDADNDEYYMYYGGWKHCNMVRLNKDFTGLIPFEDGTIYKEVTPKDYVEGPFMFKKNGKYYFMWSEGGWTGPDYKVAYAISDSPFGPFNRIGEVLRQNFDMANGAGHHSIMHVPNSEDYYIVYHRRPAGVKTRDHRETCIEKMTFNEEGLINPVEITTEGVEARTIQ”: the “soluble on expression in E. coli” value was “not soluble”.
